# Results from the DeepSol protein solubility set.
# Experiment: soluble on expression in E. coli; label from the status in PepcDB or PDB records
row,Sequence,soluble on expression in E. coli
1,MNFNTILEEILIKRSQQKKKTSPLNYKERLFVLTKSVLSYYEGRAEKKYRKGVIDISKIKCVEIVKNDDGVIPCQNKFPFQVVHDANTLYIFAPSPQSRDRWVKKLKEEIKNNNNIMIKYHPKFWADGSYQCCRQTEKLAPGCEKYNLFESSIRKTLPPAPEIKKRRPPPPIPPEEENTEEIVVAMYDFQATEAHDLRLERGQEYIILEKNDLHWWRARDKYGSEGYIPSNYVTGKKSNNLDQYEWYCRNTNRSKAEQLLRTEDKEGGFMVRDSSQPGLYTVSLYTKFGGEGSSGFRHYHIKETATSPKKYYLAEKHAFGSIPEIIEYHKHNAAGLVTRLRYPVSTKGKNAPTTAGFSYDKWEINPSELTFMRELGSGLFGVVRLGKWRAQYKVAIKAIREGAMCEEDFIEEAKVMMKLTHPKLVQLYGVCTQQKPIYIVTEFMERGCLLNFLRQRQGHFSRDMLLSMCQDVCEGMEYLERNSFIHRDLAARNCLVNEAGVVKVSDFGMARYVLDDQYTSSSGAKFPVKWCPPEVFNYSRFSSKSDVWSFGVLMWEIFTEGRMPFEKNTNYEVVTMVTRGHRLHRPKLASKYLYEVMLRCWQERPEGRPSFEDLLRTIDELVECEETFGR,soluble
2,MAKHAPQLPIEVDSETGVWTTDALPMLYVPRHFFVNNHMGIEEVLGADAYAEILYKAGYKSAWHWCEKEAECHGLEGVAVFEHYMKRLSQRGWGLFEIERINLEEGTAEVRLRHSAFVYVYGKVNRKVDYMFTGWFAGAMDQILAARGSSLRTVAEQVYSGAEDGHEDGLFVVKPL,soluble
3,MRSRRVDVMDVMNRLILAMDLMNRDDALRVTGEVREYIDTVKIGYPLVLSEGMDIIAEFRKRFGCRIIADFKVADIPETNEKICRATFKAGADAIIVHGFRGADSVRACLNVAEEMGREVFLLTEMSHPGAEMFIQGAADEIARMGVDLGVKNYVGPSTRPERLSRLREIIGQDSFLISPGVGAQGGDPGETLRFADAIIVGRSIYLADNPAAAAAGIIESIKDLLNP,not soluble
4,MGSDKIHHHHHHMPILLLAQSDAHLSLGAAQGPGAELDRRACEQLDIPVLRRPLGGGVVWVDPGQLNYFFIFPAAAGVRRAPELFDRIAPWVLAVHAHFGLEVEVRGGQDFWCRGRKIGGTGAASIGHSLVLGGSFILEAQWTSFADCVAAPSAGFRAWLKEALEEDLGSWSRLLGRVVGPEVVLDACPALLHAAGWDVVVTRPTEAERRAMTQVELEDVDWEQPVRRRVRAGIKLKAGAFLTEQHWPDGHWLRVWTENGTFRRIAGSAWSAGQGDTLTGLQPGSERFDERLREMAGAGAALWGERLSETAVWAD,not soluble
5,MGSDKIHHHHHHMTINDLQAFVMVYDLRHISNAAVELHLSQSELSKRMRALENELNIKLLDTHNKRRLQITPAGETFYHHAHKMITDYETMMHDLAPNRPTTFAKLIIGAIPISGQYNIAKKIATFDTQHPDTEIKIIEDEGDQIVKRLLSGELQAAIIRDTQTTQLQPTEFQKQPLLADELKIILPRDHPLATQPVIRIQDLARQKIATLPPGSGVYEPINALFAQQGMTPQFFFESTHIETLLGILNQNNVTFLFKQSVLPFMTEHVVMRSLAIPFISQLNFVYPQRTGNQLLTDLIDYLTVTAQENQQV,not soluble
6,MSLTREVGQRREAEETAHKLAHTDPLTGCLNRRSMGPAVEQMVSTARTSGHEVVVMMMDLDNFKRSNDVHGHQAGDAVLLHTADRIRAILPAGSIIARLGGDEFACAAIFDPDHVESIDRLILRMNEAVAMPVRVDGLMLEVTASIGLAATSAADAGAPPALADTLLHRADLAMYQAKKAGRNRYCWFEQNMESELRFRSELEREIREGVARGEFVPYYEKQIDLETGELTGFEMLARWRSPRHGLLSPEIFIPIAEEIGLISELSENLIRQALRDARDWDPTLTLSVNISPIQLRDPWFAQKLLKLLVEANFPPHRLDIEITETCLHENVGVVRTLITSLKNQGIRISLDDFGTGYSSLAQLRTLPFDQIKIDRFFVSNLGKNKDSATIVEAISSLGKGMDLPITAEGIESPEVLDELRKFGKFKGQGFLYGQPGDASEIRAMLADRQLLQQQAEGHHHHHH,soluble
7,MGSDKIHHHHHHMKVIKFGGSSLASGIQLNKVFQLVAEDSERKIVVVSAPGKRFKDDTKVTDLLIDCAAKALLGEDTSELFEAVIARYAGIALDTGMDDAIITQIRADLQKTISSDKSDPDKFLDRMKASGEDNNAKLIAAYFKFKGLNANYVNPKDAGLFVTDEHASAQVLPESYDRLFALREREGIIVFPGFFGYTKDGEISTFSRSGSDITGAIVANGAQAELYENFTDVDAVYAVNPAIVKNPKKVLELTYREMRELSYAGFSVFHDEALIPAFHAGIPVHIKNTNNPDSCGTRVVHERENNNGPVVGIASDDGFCSIYISKYLMNREIGFGRKVLQILEDAGLNYEHMPSGIDDLTIIIRENQFGEDTERTIMTRLKEELNADQVIMQHGISLIMVVGEAMRHNVGITSRASKALSDAKVNIEMINQGSSEVSIMFGVKEEQENTAVRALYNEFFSEVLV,not soluble
8,MHDAATSMPPQAPSTWADYLAGYRWRGQGEGCSAATVHRLEAARRPTLFVKQEVLSAHAELPAEIARLRWLHGAGIDCPQVLNETQSDGRQWLLMSAMPGDTLSALAQRDELEPERLVRLVAAALRRLHDLDPAACPFDHRLERRLDTVRQRVEAGLVDEADFDDDHRGRSATELYRLLLDRRPAVEDLVVAHGDACLPNLLAEGRRFSGFIDCGRLGVADRHQDLALAARDIEAELGAAWAEAFLVEYGGDIDGERLAYFRLLDEFF,soluble
9,MGSDKIHHHHHHMTEGISIAVLDNDSWSLRAIARWIDGSSPLYHVIWQTTSAAEAIHRCIYTNDKPNVLLLDMALNDATGISVCTQIRKRTADIGIIGITAYDPERYKTDLALAGGQALIAKENLAHVCNKVLPIVAQGKSAEPNSFPTAKQAHDILAEQPSSFSQIKQLSPRELQVLRLYTQNNNTSEIASQLGISSNTVFSYIHRVSKKIGTKNRSEIIRLCKKYDIL,not soluble
10,MPNNISKSAIIKEGVIIGENVTIEDNVYIDYGCIIRDNVHIKKGSFIGARSILGEYLVDFYNDRINKKHPLIIGENALIRTENVIYGDTIIGDNFQTGHKVTIRENTKIGNNVKIGTLSDIQHHVYIGNYVNIHSNVFVGEKSIIKDFVWLFPHVVLTNDPTPPSNELLGVTIELFAVIAARSVVLPGIHINEDALVGAGAVVTKDVPKETVVVGNPAREICSIRKIKNKITGEQVYPWRYTFKRGMPWEETDYDTWIKNISIENLEHHHHHH,soluble
11,MHERHRFWQRALRLLSLGVPREASSALFGHDHSLQQETWLRSLQKEKQHIIDWHDRLTDIPFVIIDMETTGFSPEQGDEILAMAAAKTVGGVVTDAYMTLVKPEKPIPEHISALTGIEAKDVVFAPPLAEALRTFVPFIAAGVLIGYHIGHDLAFLRHALWRHYRQKWSGRFVDLQPMMTLIGHSCPTFDDALACYGICCPRRHTADGDVEAMAKLWAILLDEFRQRGIDTLHDLYAALSRC,not soluble
12,MSLTIMPDIARMKRELAEIIAIRSENPPGGEADVAVYVERLLKDEGFSVSLTEYKPGRFNVEARIENGPGPVFAFNTHMDTVPAGDGWTTDAFILREDDGKLFGRGACDCKGPLIAMIEAMRMLAADRTAWSGTLLGVFVGDEEIASEGAKYYAAARPKIDFAVVGEPTSNTTYSAHKGSLRPVVRVHGVTAHSGTPHLGDNAIYRAGQLLTLVEAFHNNVVRKRTHPLVGEASLTVTRISGGHADNVLPGSCDLLLDRRMVPGESEDAVKQEFATLLKDAYDRFGVKAEIVDYKATTGSATETAADQSIVAASLEACRASGTSDPGPFGFQGGCDLVHFRSLGAQGTVIGPGSLSVAHKADEFVPLDEFVTCSVIYRDVARKMLRPNEGHHHHHH,soluble
13,MMKTNTKKAKYDDAELFEKVLVGMSWLESHLREIIQTMVTDADVSFEQFLILYYLDHSTDHRITVKELAADRHVSSSAISRKLTYLINNDLIVLNIDPYDRRYRYLTLTAKGEKLARVIEKVNEERLGKFLDEFGRIRTSELTDELRMVSKVLVDTKEIKG,not soluble
14,MQLQKLVNMFGGDLTRRYGQKVHKLTLHGGFSCPNRDGTIGRGGCTFCNVASFADEAHEHRSIAEQLAHQANLVNRAKRYLAYFQAYTSTFAEVQVLRSMYQQAVSQANIVGLCVGTRPDCVPDAVLDLLCEYKDQGYEVWLELGLQTAHDKTLHRINRGHDFACYQRTTQLARQRGLKVCSHLIVGLPGEGQAECLQTLERVVETGVDGIKLHPLHIVKGSIMAKAWEAGRLNGIELEDYTLTAGEMIRHTPPEVIYHRISASARRPTLLAPLWCENRWTGMVELDRYLNEHGVQGSALGRPWLPPTELEHHHHHH,not soluble
15,MSLGGDRFYDLISAVHKSIRGSAPDAALYWYARIITAGGDPLYVARRLLAIASEDIGNADPRAMQVALSAWDCFTRVGAAEGERAIAQAIVYLAVAPKSNAVYQAFNAAKALAKQAPDYDVPRHLTNAPTQLLKELGNHAEYRYAHDEPNAYAAGENYFPEPLKDTRFYFPGARGMEIKIKEKLDWLRNLDQQSENIREGHHHHHH,soluble
16,MQRYKLPVSVLVVIYTADLQVLLLERADHPGYWQSVTGSQDPGETLLQTAVREVREETGLNTDDYVLSDWQIQNRYEIFEEWNWRYPPGTTHNTEHVFGLELPKTIPAVVSSREHLGYVWLPWREAAEKVFSSSNACAIRMLASKRKSENSR,not soluble
17,MDWSEERTATLKKLWLEGLSASQVARQLGGVSRSAVIGKVHRLGITVRETPVRQRATTARAPSRISVRQRPSRDVATPRVAPRYERIEEDLLPTSGILGLGAHSCRWPIGHPENDDFGFCGRPKASARGSYCEQHSQGAFRRLSGGQALEAWALKGVKEKRIQPRLVLEHHHHHH,not soluble
18,MGSDKIHHHHHHMETDMPADMIQPLCEIDDLRIGFHGHDGALTEAVRGLSLTLHRGERLGIVGESGSGKSLTGRALLGLLPPAAQYRAKAMTFDGQDLLSMSARKRRQLCGQQMGMILQDPKYSLNPVMTVAQQMREVFDLHGPKLGRREMREQIIAALAAVHIRNPERVADAYPHELSGGMGQRVMIAMMVSSGPRLLVADEPTSALDVLVSMQVLGILDEMIEKHHTGLIFISHDLPLVMSFCDRVVVMFAGRVVETCAARDLVHARHPYTRGLLAASPPLIDPPDQLPVLKPDPAWLTQPAGASA,not soluble
19,MPVTEVGSLPELNNILERSDANRLIIIDFFANWCGPCRMISPIFEQFSAEYGNATFLKVNCDVARDIVQRYNISAMPTFIFLKNRQQVDMVRGANQQAIAEKIRQHYSPTPANPNAASDSEKRFLEQFVKCSNVPRSYQDEVFKALARSVMPEELVGRAMTEGPRDEKAILKDLLHWFKTQFFTWFDRPTCPKCTLKCSTDGLQGTPTREEQKEGGASRVEVYICDGCNTEMRFPRYNNPAKLLQTRTGRCGEWANCFGLLLAALNLESRFIYDTTDHVWNEVYLLAEQRWCHVDPCENTMDRPLLYTRGWGKTLGYCIGYGSDHVVDVTWRYIWDSKKLVTQRNEVRQPVFENFLSKLNSRQAEGQTEPRKRELAVRRVCELMEMMAQEAKNHKIGWEKIGDDLGGRITGSEEWRRERGELGESGPKLLAEPIKLAPPTGPAQNYLEFNYDVITDTYSQPPEIGFSAQAFELENVQRVEETDWNMTYLCRKRGDAPGNISWHFDLKSLKKSIEKIEIRMAGIQKFEKGKAMAIACLGDSCMRLPIDCSALTIEDPKNAEILKITATLSGGEGAIGFQQAQIFRTELKRGGGARTESFSVKIWMKN,not soluble
20,AEKRNIFLVGPMGAGKSTIGRQLAQQLNMEFYDSDQEIEKRTGADVGWVFDLEGEEGFRDREEKVINELTEKQGIVLATGGGSVKSRETRNRLSARGVVVYLETTIEKQLARTQRDKKRPLLHVETPPREVLEALANERNPLYEEIADVTIRTDDQSAKVVANQIIHMLESN,soluble
